# Results taken from the supplement of paper PMC12667976.
# ± gives the standard error.
# B1: library; numbered along this chain (parent)
# chain: MATDAALRRLLRLHRTEIAVAVDSAFPLLHALADHDVVPEDKFQETLHLKEKEGCPQAFHALLSWLLTQDSTAILDFWRVLFKDYNLERYGRLQPILDSFPKDVDLSQPRKGRKPPAVPKALVPPPRLPTKRKASEEARAAAPAALTPRGTASPGSQLKAKPPKKPESSAEQQRLPLGNGIQTMSASVQRAVAMSSGDVPGARGAVEGILIQQVFESGGSKKCIQVGGEFYTPSKFEDSGSGKNKARSSSGPKPLVRAKGAQGAAPGGGEARLGQQGSVPAPLALPSDPQLHQKNEDECAVCRDGGELICCDGCPRAFHLACLSPPLREIPSGTWRCSSCLQATVQEVQPRAEEPRPQEPPVETPLPPGLRSAGEEVRGPPGEPLAGMDTTLVYKHLPAPPSAAPLPGLDSSALHPLLCVGPEGQQNLAPGARCGVCGDGTDVLRCTHCAAAFHWRCHFPAGTSRPGTGLRCRSCSGDVTPAPVEGVLAPSPARLAPGPAKDDTASHEPALHRDDLESLLSEHTFDGILQWAIQSMARPAAPFPS
# Variants of: B1
# Test: AIRE transcriptional activation functional score (insulin promoter-GFP; nonsense median 0, synonymous median 1) (normalised score); higher = higher AIRE activity (more reporter activation)
# Details: with insulin promoter-GFP reporter in HEK293
# Description: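 Deep mutational scan of full-length human AIRE (codon-optimized cDNA, DT-POPCode NNN libraries over three regions) integrated at a Bxb1 landing pad in HEK293 cells carrying an insulin core promoter-GFP reporter at a Flp-In site. Cells were sorted for the top 10% GFP about 14 days after transfection. Variant frequency log-ratios (select vs non-select, TileSeq) were rescaled so that the nonsense median is 0 and the synonymous median is 1, then averaged over biological replicates.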
row,Variant,AIRE transcriptional activation functional score
1,P101L,0.222 ± 0.29
2,P101T,-0.239 ± 0.52
3,E298V,0.91 ± 0.23
4,V484D,0.164 ± 0.18
5,I528G,0.149 ± 0.21
6,A496I,1.04 ± 0.29
7,A145R,0.804 ± 0.39
8,E229T,-0.101 ± 0.21
9,E229F,0.704 ± 0.12
10,E229P,0.679 ± 0.25
11,R473I,0.852 ± 0.71
12,A540M,0.694 ± 0.066
13,S153R,0.588 ± 0.29
14,D41G,0.147 ± 0.57
15,C314Y,0.725 ± 0.11
16,C314S,1.07 ± 0.24
17,P542R,0.209 ± 0.13
18,L93I,0.258 ± 0.25
19,V301G,1.08 ± 0.16
20,G178M,1.65 ± 0.15
21,A271H,1.66 ± 0.047

row,Variant,AIRE transcriptional activation functional score
1,F215I,0.64 ± 0.21
2,G486I,1.37 ± 0.12
3,G486D,0.692 ± 0.16
4,G486Y,0.737 ± 0.24
5,L370W,0.504 ± 0.13
6,C310E,1.29 ± 0.17
7,C310P,0.625 ± 0.32
8,C310Q,0.509 ± 0.23
9,C55G,-0.175 ± 0.35
10,G263D,1.31 ± 0.2
11,G155A,1.44 ± 0.52
12,K253A,1.28 ± 0.23
13,F77R,-0.0859 ± 0.37
14,F77H,0.528 ± 0.61
15,G219A,1.13 ± 0.2
16,G219W,0.981 ± 0.012
17,G219D,0.836 ± 0.25
18,Q157D,0.498 ± 0.44
19,A21H,0.216 ± 0.22
20,V199Q,0.755 ± 0.36
21,H14F,0.561 ± 0.32

row,Variant,AIRE transcriptional activation functional score
1,N179P,1.71 ± 0.12
2,E237D,0.996 ± 0.086
3,L291N,0.0689 ± 0.21
4,R303F,1.47 ± 0.086
5,E508T,0.822 ± 0.21
6,M194K,0.544 ± 0.15
7,M194Q,0.907 ± 0.12
8,M194I,1.08 ± 0.14
9,P357Q,1.06 ± 0.076
10,A510L,1.04 ± 0.12
11,I533C,0.256 ± 0.076
12,C434H,0.179 ± 0.038
13,A451F,-0.0649 ± 0.075
14,A386P,0.921 ± 0.3
15,A386T,1.02 ± 0.21
16,C337E,1.73 ± 0.059
17,C337Q,1.5 ± 0.4
18,I181P,-1.22 ± 0.25
19,R351T,0.615 ± 0.22
20,R351L,0.985 ± 0.14
21,R351I,0.573 ± 0.3

row,Variant,AIRE transcriptional activation functional score
1,Q225Y,-0.259 ± 0.17
2,Q225I,0.248 ± 0.23
3,T390S,0.817 ± 0.33
4,V348C,0.781 ± 0.12
5,A429C,0.771 ± 0.1
6,P544I,1.16 ± 0.096
7,I74E,-0.548 ± 0.08
8,P289M,1.35 ± 0.076
9,P325N,0.521 ± 0.16
10,P325Y,1.18 ± 0.32
11,A140V,1.35 ± 0.35
12,D442W,-0.0188 ± 0.023
13,S250L,1.02 ± 0.34
14,P266M,1.44 ± 0.081
15,L62Y,0.0998 ± 0.29
16,T232V,1.07 ± 0.18
17,T232G,0.941 ± 0.22
18,A141G,1.28 ± 0.34
19,P331C,1 ± 0.14
20,S339P,1.13 ± 0.22
21,S339T,1.12 ± 0.24
